The data set deals with the molecule itself. Put plainly: cross-linking; BS3 cross-linking of purified GST-Mps1 (10:1 protein:BS3, 2 h on ice; 50 mM HEPES pH 7.5, 250 mM KCl, 0.05% NP-40, 1 mM DTT), NATIVE-PAGE, bands of cross-linked dimers excised, cross-linked peptides identified by mass spectrometry.

Changes are numbered by the printed parent chain. Numbers in names are those of the source.

The record followed here is article PMC5863767, “Mps1 Phosphorylates Its N-Terminal Extension to Relieve Autoinhibition and Activate the Spindle Assembly Checkpoint” (Current Biology, 2018).

B1: GST-Mps1-WT (enzyme, human, UniProt P33981 1-857, looked up)
chain: MESEDLSGRELTIDSIMNKVRDIKNKFKNEDLTDELSLNKISADTTDNSGTVNQIMMMANNPEDWLSLLLKLEKNSVPLSDALLNKLIGRYSQAIEALPPDKYGQNESFARIQVRFAELKAIQEPDDARDYFQMARANCKKFAFVHISFAQFELSQGNVKKSKQLLQKAVERGAVPLEMLEIALRNLNLQKKQLLSEEEKKNLSASTVLTAQESFSGSLGHLQNRNNSCDSRGQTTKARFLYGENMPPQDAEIGYRNSLRQTNKTKQSCPFGRVPVNLLNSPDCDVKTDDSVVPCFMKRQTSRSECRDLVVPGSKPSGNDSCELRNLKSVQNSHFKEPLVSDEKSSELIITDSITLKNKTESSLLAKLEETKEYQEPEVPESNQKQWQSKRKSECINQNPAASSNHWQIPELARKVNTEQKHTTFEQPVFSVSKQSPPISTSKWFDPKSICKTPSSNTLDDYMSCFRTPVVKNDFPPACQLSTPYGQPACFQQQQHQILATPLQNLQVLASSSANECISVKGRIYSILKQIGSGGSSKVFQVLNEKKQIYAIKYVNLEEADNQTLDSYRNEIAYLNKLQQHSDKIIRLYDYEITDQYIYMVMECGNIDLNSWLKKKKSIDPWERKSYWKNMLEAVHTIHQHGIVHSDLKPANFLIVDGMLKLIDFGIANQMQPDTTSVVKDSQVGTVNYMPPEAIKDMSSSRENGKSKSKISPKSDVWSLGCILYYMTYGKTPFQQIINQISKLHAIIDPNHEIEFPDIPEKDLQDVLKCCLKRDPKQRISIPELLAHPYVQIQTHPVNQMAKGTTEEMKYVLGQLVGLNSPNSILKAAKTLYEHYSGGESHNSSSSKTFEKKRGKK
notes: Mps1 kinase, human, wild type, full-length polypeptide; also called active Mps1; source: baculovirus-infected Sf9 cells, purified (glutathione-agarose, eluted with glutathione)
In the case of B1, the binding result is recorded as “binds”.

B2: GST-Mps1-KD (enzyme, human, UniProt P33981 1-857, looked up)
chain: B1 chain with D664A
notes: Mps1 kinase, human, kinase-dead, full-length polypeptide; also called kinase-dead (D664A); source: baculovirus-infected Sf9 cells, purified (glutathione-agarose, eluted with glutathione)
Turning to B2, the binding result is “binds”.
